PMC4373776, “A Unique HMG-Box Domain of Mouse Maelstrom Binds Structured RNA but Not Double Stranded DNA”
Substitutions are numbered along the chain they refer to.

How the values were obtained:
MAEL HMG-box [1] = biological target: T1, MAEL HMG-box (Mus musculus, UniProt Q8BVN9 2-86); test: EMSA; 10 mM potassium phosphate pH 7.5, 50 mM KCl, 5% glycerol, 1 mM TCEP, 0.1 mg/ml BSA, 2.5 mM MgCl2, ~1 nM substrate, room temperature 30-60 min; native PAGE in ice bath; settings: protein: recombinant, tags: GST removed by PreScission (pGex6P2), label: 5' 32P
T1 sequence: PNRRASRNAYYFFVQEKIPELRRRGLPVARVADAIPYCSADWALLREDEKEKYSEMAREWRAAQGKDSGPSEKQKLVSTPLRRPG

HMGB1a (HMGB1 box A) [2] = biological target: T2, HMGB1a (HMGB1 box A) (Mus musculus, UniProt P63158 2-86); test: as above; settings: protein: recombinant; tags: GST removed by PreScission (pGex6P2); label: 5' 32P; blunt
T2 sequence: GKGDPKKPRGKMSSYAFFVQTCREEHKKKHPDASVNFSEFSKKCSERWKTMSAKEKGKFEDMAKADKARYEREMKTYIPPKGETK

SRY HMG-box [3] = biological target: T3, SRY HMG-box (Mus musculus (129S4), UniProt Q05738 2-86); test: EMSA; 2.5 mM Mg2+; average of titration and cold competition; 10 mM potassium phosphate pH 7.5, 50 mM KCl, 5% glycerol, 1 mM TCEP, 0.1 mg/ml BSA, 2.5 mM MgCl2, ~1 nM substrate, room temperature 30-60 min; native PAGE in ice bath; settings: protein: recombinant; tags: GST removed by PreScission (pGex6P2); label: 5' 32P; blunt
HMGB1a (HMGB1 box A) [4] = biological target: T2, HMGB1a (HMGB1 box A); test: EMSA; two complexes; 10 mM potassium phosphate pH 7.5, 50 mM KCl, 5% glycerol, 1 mM TCEP, 0.1 mg/ml BSA, 2.5 mM MgCl2, ~1 nM substrate, room temperature 30-60 min; native PAGE in ice bath; settings: protein: recombinant; tags: GST removed by PreScission (pGex6P2); label: 5' 32P; four-way junction of 4 strands
MAEL HMG-box Q16A = biological target: T4, MAEL HMG-box Q16A (Mus musculus, UniProt Q8BVN9 2-86, Q16A); test: EMSA; same as wild type; 10 mM potassium phosphate pH 7.5, 50 mM KCl, 5% glycerol, 1 mM TCEP, 0.1 mg/ml BSA, 2.5 mM MgCl2, ~1 nM substrate, room temperature 30-60 min; native PAGE in ice bath; settings: protein: recombinant; tags: GST removed by PreScission (pGex6P2); label: 5' 32P; four-way junction of 4 strands
T4 sequence: T1 sequence with Q15A

SRY HMG-box [5] = biological target: T3, SRY HMG-box; test: EMSA; five complexes; 10 mM potassium phosphate pH 7.5, 50 mM KCl, 5% glycerol, 1 mM TCEP, 0.1 mg/ml BSA, 2.5 mM MgCl2, ~1 nM substrate, room temperature 30-60 min; native PAGE in ice bath; settings: protein: recombinant; tags: GST removed by PreScission (pGex6P2); label: 5' 32P; four-way junction of 4 strands
MAEL HMG-box R8A = biological target: T5, MAEL HMG-box R8A (Mus musculus, UniProt Q8BVN9 2-86, R8A); test: EMSA; 10 mM potassium phosphate pH 7.5, 50 mM KCl, 5% glycerol, 1 mM TCEP, 0.1 mg/ml BSA, 2.5 mM MgCl2, ~1 nM substrate, room temperature 30-60 min; native PAGE in ice bath; settings: protein: recombinant; tags: GST removed by PreScission (pGex6P2); label: 5' 32P; four-way junction of 4 strands
T5 sequence: T1 sequence with R7A

MAEL HMG-box R25A = biological target: T6, MAEL HMG-box R25A (Mus musculus, UniProt Q8BVN9 2-86, R25A); test: as above; settings: protein: recombinant; tags: GST removed by PreScission (pGex6P2); label: 5' 32P; four-way junction of 4 strands
T6 sequence: T1 sequence with R24A

MAEL HMG-box R23A = biological target: T7, MAEL HMG-box R23A (Mus musculus, UniProt Q8BVN9 2-86, R23A); test: as above; settings: protein: recombinant; tags: GST removed by PreScission (pGex6P2); label: 5' 32P; four-way junction of 4 strands
T7 sequence: T1 sequence with R22A

MAEL HMG-box R31A = biological target: T8, MAEL HMG-box R31A (Mus musculus, UniProt Q8BVN9 2-86, R31A); test: as above; settings: protein: recombinant; tags: GST removed by PreScission (pGex6P2); label: 5' 32P; four-way junction of 4 strands
T8 sequence: T1 sequence with R30A

MAEL HMG-box [6] = biological target: T1, MAEL HMG-box; test: EMSA; no appreciable binding; 10 mM potassium phosphate pH 7.5, 50 mM KCl, 5% glycerol, 1 mM TCEP, 0.1 mg/ml BSA, 2.5 mM MgCl2, ~1 nM substrate, room temperature 30-60 min; native PAGE in ice bath; settings: protein: recombinant; tags: GST removed by PreScission (pGex6P2); label: 5' 32P; folded
MAEL HMG-box [7] = biological target: T1, MAEL HMG-box; test: EMSA; complex from 0.5 uM protein; cooperative; fully bound; 10 mM potassium phosphate pH 7.5, 50 mM KCl, 5% glycerol, 1 mM TCEP, 0.1 mg/ml BSA, 2.5 mM MgCl2, ~1 nM substrate, room temperature 30-60 min; native PAGE in ice bath; settings: protein: recombinant; tags: GST removed by PreScission (pGex6P2); label: 5' 32P; folded
MAEL HMG-box [8] = biological target: T1, MAEL HMG-box; test: EMSA; 2.5 mM Mg2+; binding incomplete; 10 mM potassium phosphate pH 7.5, 50 mM KCl, 5% glycerol, 1 mM TCEP, 0.1 mg/ml BSA, 2.5 mM MgCl2, ~1 nM substrate, room temperature 30-60 min; native PAGE in ice bath; settings: protein: recombinant; tags: GST removed by PreScission (pGex6P2); label: 5' 32P; four-way junction of 4 strands
HMGB1a (HMGB1 box A) [9] = biological target: T2, HMGB1a (HMGB1 box A); test: EMSA; multiple intermediate complexes; 10 mM potassium phosphate pH 7.5, 50 mM KCl, 5% glycerol, 1 mM TCEP, 0.1 mg/ml BSA, 2.5 mM MgCl2, ~1 nM substrate, room temperature 30-60 min; native PAGE in ice bath; settings: protein: recombinant; tags: GST removed by PreScission (pGex6P2); label: 5' 32P; four-way junction of 4 strands

T3 sequence (Q05738 2-86): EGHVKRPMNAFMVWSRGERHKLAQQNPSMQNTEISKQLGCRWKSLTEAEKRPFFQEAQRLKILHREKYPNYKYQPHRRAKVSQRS

B1: dsDNA-SRY 15 bp (dsDNA)
DNA 1: GCGCAACAATGCCGG
DNA 2: CCGGCATTGTTGCGC
MAEL HMG-box [1]; blunt
  binding result: no binding
HMGB1a (HMGB1 box A) [2]
  binding result: no binding
SRY HMG-box [3]
  Kd: ~12 nM

## GGGACCAGAAGGUCCCG (structured_RNA) [RNA hairpin 2]
MAEL HMG-box [1]; hairpin
  binding result: no binding

B2: DNA 4WJ (structured_DNA)
DNA 1: CCGACAGGACTGTCAACCAGGTAATATACCACTTGCGG
DNA 2: CCGCAAGTGGTATATTACCTGGTACGCGTTCACGG
DNA 3: CCGTGAACGCGTGGTGCGAATCGG
DNA 4: CCGATTCGCACCTGACAGTCCTGTCGG
HMGB1a (HMGB1 box A) [4]
  binding result: binds
MAEL HMG-box Q16A
  binding result: binds
SRY HMG-box [5]
  binding result: binds
MAEL HMG-box R8A
  binding result: no binding
MAEL HMG-box R25A
  binding result: no binding
MAEL HMG-box R23A
  binding result: no binding
MAEL HMG-box R31A
  binding result: no binding

## AAAGGGTTAGGGTTAGGGTTAGGGAA (ssDNA) [ssDNA (25-nt)]
MAEL HMG-box [1]
  binding result: no binding

B3: chr2 noPeak 177-nt RNA (structured_RNA)
RNA: GGGGGGGAUGAAAAAUUCAUCUAAUUUAGUACAAUGUAAAUAUAAAGAGUUUGGAAAUUUUUGAAAACUUGAGGUCAUGUUAAAAAAGCAACAACUCUCCUUUUAGAUUGUCCUAUUUGUGUCUUGAAAUUCCUAUGCUGUUCUAAACCCAUUUGGUAUGUAUGCUCCUGCCCAAAC
MAEL HMG-box [6]
  binding result: no binding

## GGGAAAGGGUUAGGGUUAGGGUUAGGGAA (ssRNA) [ssRNA]
MAEL HMG-box [1]
  binding result: no binding

B4: methylated dsDNA 16 bp (dsDNA)
DNA 1: CAGTCGACGTCGTGAC
DNA 2: GTCACGACGTCGACTG
modifications: 5-methyl-dC at position 8 of each strand
MAEL HMG-box [1]; blunt
  binding result: no binding

## GCGCAACAAUGCCGG (structured_RNA) [RNA hairpin 1]
MAEL HMG-box [1]; hairpin
  binding result: no binding

B5: L1_Md_F2 277-nt RNA (structured_RNA)
RNA: GGGUUCUGGCUAUUAUAAAUAAGGCUGCUAUGAACAUAGUGGAGCAUGUGUCCUUCUUACCGGUUGGGGCAUCUUCUGGAUAUAUGCCCAGGAGAGGUAUUGCUGGAUCCUCCGGUAGUACUAUGUCCAAUUUUCUGAGGAACCACCAGACUGAUUUCCAGAGUGGUUGUACAGCUUGCAAUCCCACCAGCAAUGAAGGCGUGUUCCUCUUUCUCCACAUCCACGCCAGCAUCUGCUGUCACCUGAAUUUUUGAUCUUAGCCAUUCUGACUGGUGUG
MAEL HMG-box [7]
  binding result: binds

B6: RNA 4WJ (structured_RNA)
RNA 1: CCGACAGGACUGUCAACCAGGUAAUAUACCACUUGCGG
RNA 2: CCGCAAGUGGUAUAUUACCUGGUACGCGUUCACGG
RNA 3: CCGUGAACGCGUGGUGCGAAUCGG
RNA 4: CCGAUUCGCACCUGACAGUCCUGUCGG
modifications: 5'-terminal dC and 3'-terminal dG on each strand
MAEL HMG-box [8]
  Kd: 638 nM
MAEL HMG-box R8A
  binding result: no binding
HMGB1a (HMGB1 box A) [9]
  binding result: binds
